PMC4263437

Tested on: O=C(Cc1cccs1)N[C@@H]1C(=O)N2C(C(=O)O)=C(/C=C/c3ccc([N+](=O)[O-])cc3[N+](=O)[O-])CS[C@H]12
Experiment: purified protein
Type: biochemical, Acinetobacter baumannii

For “ADC-7 β-lactamase (Acinetobacter-derived cephalosporinase) (Acinetobacter baumannii)”, the Km was 21.2 µM.
